From PMC4644379

What was measured:
[1] = biological target: NKG2D on human NK cells (human (endogenous in NK cells and CD8+ T cells from PBMC)) (UniProt P26718)
[2] = biological target: NKG2D on human NK cells (human (endogenous in NK cells and CD8+ T cells from PBMC)) (UniProt P26718); remark: listed apart in the source
[3] = biological target: NKG2D on human NK cells (human (endogenous in NK cells and CD8+ T cells from PBMC)) (UniProt P26718); remark: listed apart in the source
[4] = biological target: NKG2D on human NK cells (human (endogenous in NK cells and CD8+ T cells from PBMC)) (UniProt P26718); remark: listed apart in the source
[5] = biological target: NKG2D on human NK cells (human (endogenous in NK cells and CD8+ T cells from PBMC)) (UniProt P26718); remark: listed apart in the source
[6] = biological target: NKG2D on human NK cells (human (endogenous in NK cells and CD8+ T cells from PBMC)) (UniProt P26718); remark: listed apart in the source
[7] = biological target: NKG2D on human NK cells (human (endogenous in NK cells and CD8+ T cells from PBMC)) (UniProt P26718); remark: listed apart in the source

Chain of UniProt P26718 (P26718 whole entry): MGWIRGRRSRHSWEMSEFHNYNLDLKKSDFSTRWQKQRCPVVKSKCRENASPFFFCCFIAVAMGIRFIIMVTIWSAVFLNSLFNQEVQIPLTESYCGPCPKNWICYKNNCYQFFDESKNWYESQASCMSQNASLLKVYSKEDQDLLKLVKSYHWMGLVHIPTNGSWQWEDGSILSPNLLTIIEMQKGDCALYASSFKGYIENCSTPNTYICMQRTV

degranulation of NK cells exposed to L cell clones: MFI of CD107a, difference to L-MICA-129Met, adjusted for MICA expression (MFI units lower than with L-MICA-129Met) [1] | degranulation of NK cells exposed to L cell clones: percentage of CD107a+ NK cells, difference to L-MICA-129Met, adjusted for MICA expression (%-points less than with L-MICA-129Met) [1] | regression coefficient of the MFI of CD107a on NK cells against MICA expression intensity on target clones [1] | down-regulation of NKG2D on NK cells co-cultured 4 and 24 h with L cell clones: MFI of NKG2D against L-con [2] [MFI units] | down-regulation of NKG2D on NK cells co-cultured 4 and 24 h with L cell clones: percentage of NKG2D+ NK cells against L-con [2] [%-points] | IFNγ release (ELISA) of NK cells, effect of MICA expression intensity on target clones (pg/ml per MFI unit of MICA) [3] | relative lysis of L cell clones by LAK cells (51Cr release, E:T 200:1), difference to L-MICA-129Met, adjusted for MICA expression (%-points reduced against L-MICA-129Met) [4] | intracellular IFNγ (MFI) in CD56brightCD16- NK cells co-cultured 4 h with L cell clones, difference to L-MICA-129Met (MFI units lower than with L-MICA-129Met) [5] | percentage of IFNγ+ CD56brightCD16- NK cells co-cultured 4 h with L cell clones, difference to L-MICA-129Met (%-points less than with L-MICA-129Met) [5] | regression coefficient of the MFI of IFNγ in CD56brightCD16- NK cells against MICA expression intensity [5] | regression coefficient of the proportion of IFNγ+ CD56brightCD16- NK cells against MICA expression intensity [5] | down-regulation of NKG2D on NK cells: percentage of NKG2D+ cells, difference between L-MICA-129Met and L-MICA-129Val targets (%-points against L-MICA-129Val) [2] | IFNγ release (ELISA) of NK cells co-cultured 24 h with L cell clones, difference to L-MICA-129Val, adjusted for MICA expression (pg/ml higher than with L-MICA-129Val) [3] | IFNγ release (ELISA) of NK cells, effect of MICA expression intensity on target clones (pg/ml per MFI unit) [3] | down-regulation of NKG2D on CD8+ T cells co-cultured with L cell clones: MFI of NKG2D, difference to L-MICA-129Val (MFI units more than with L-MICA-129Val) [6] | down-regulation of NKG2D on CD8+ T cells co-cultured with L cell clones: proportion of NKG2D+CD3+CD8+ cells, difference to L-MICA-129Val (%-points more than with L-MICA-129Val) [6] | NKG2D expression on CD56brightCD16+ NK cells after 4 and 24 h, lower with L-MICA-129Met than with L-MICA-129Val clones (%-points lower than with L-MICA-129Val) [7] | NKG2D expression on CD56brightCD16- NK cells after 4 and 24 h, lower with L-MICA-129Met than with L-MICA-129Val clones (%-points lower than with L-MICA-129Val) [7] | NKG2D expression on CD56dimCD16+ NK cells after 4 and 24 h, lower with L-MICA-129Met than with L-MICA-129Val clones (%-points lower than with L-MICA-129Val) [7] | Substance | regression coefficient of killing by LAK cells against MICA expression intensity on target clones [4]
38.5 | 10.1 | 0.29 | 11.8 | 9.5 | 1.1 | 13 | 12.5 | 7.5 | 0.09 | 0.14 | – | – | – | – | – | – | – | – | MICA-129Val variant (MICA*00701 with valine at position 129) expressed on L cells (from UniProt Q29983 24-383) (ligand) | 0.126
– | – | 0.05 | 13.7 | 19.4 | – | – | – | – | -1.11 | – | -9.3 | 176 | 0.142 | 12.1 | 35.8 | 16.2 | 15.8 | 19.5 | MICA-129Met variant (MICA*00701 allele) expressed on L cells (from UniProt Q29983 24-383) (ligand) | -0.0834
